Experiment: label from the status in PepcDB records

| Sequence | protein production |
| --- | --- |
| MNQLIFDFAAHDYPSFDKFLGTENAELVYVLRHKHGQFIYVWGEEGAGKSHLLQAWVAQALEAGKNAAYIDAASMPLTDAAFEAEYLAVDQVEKLGNEEQALLFSIFNRFRNSGKGFLLLGSEYTPQQLVIREDLRTRMAYCLVYEVKP | failed |
| MNQLSRSACTAPQRGGAWQWIACWALLLFTLLVAPLAAAQAVQGNASQEAALTVAPAPRVGVVTMQPGEVFFERFGHDAIVVVDPRTQQATSYNFGFFDPSEPDFVPRFARGDMMYYLVALPLEEDLSQYRDAGRGVSVQWLDLPPDQARALAEGLAVRSQPENARYHYDYFMANCATMVRDTLDRAMGGALKSQLAGRSRGNTFRSEAVRLASPAPWMWLGFDLGLGPYADRPLSRWEEAFVPMRLADSLTQVHNSAGRPLVQSTQVLLPHRIAPEPAEQQRHWWPWLLTGLIVAAGVLALGRRQRLLAGLALPFWLLCAIGGGLLVYLWGFTAHASAWGNRNLLLVNPLCMLLWFGGIRLQLGHRPGRWFNVLSWVVAACALAALVIHWLSFQAQDNLQWVMLLLPIHTALAIALRLRDLPVRTR | failed |
| MNQLTSSFIQNLAEDNIYKLPPHSIEAEQSVLGGLMLDNQAWDKVADIIIESDFYRQDHQLIYQHISRLIEQNKPADVITVAESLENAAQLQHAGGLAYIGAIAQNTPSAANIRRYAEIVRERSIMRKL | failed |
| MNQPASAYFMDERKDPVETHTLSVLVQNEPGVLARVIGLFSGRGYNIESLTVSETEAQKHVSRITIVTTGTLAVIQQIKHQLDRMVPVYRVVDMTLSGRSIERELAMVKLRGVGEHRVEALRLAEAFRARVIDATIESFVFEITGNSAKINQFIDLMRPLGLVEVSRTGVAAIGRGPEGM | failed |
| MNQPFLSVVIATFNVAEVLRECLHSLASQTFRDFEVVIQDGASTDGTLAVAQEAAGRLPRLSLASVADSGIYDAWNRALPRVTGDWVLFLGSDDTLAGPDVLAQCARRLADLPPQVLYACGDALEVYPDGSSRAVTCTAEGATRRMADHIPFCHSSLWHRACLFEARHFDATLRIAADYDLICRTWPHDGVGHTLGITVTHMGVGGVSSSPAHRLRTQWELVRVAARHGHGAFSRRRLVPLCKAVGLWVLCRLAGRRASVMLDRLRVMRGLPPCWTTADPARVGGRDSARGDALEHHHHHH | failed |
| MNQSLSPQQSPGFLFIAVSMITCLILLINVSFKIILLGGLVFAINSLICPLIAALFLFALRNCTFKEQRHLLNICLMTLYMFCIGVYVLVNLPAAEYMHDNPAYQVIFEEIPKKFFATTIAFALSFYLPHLLFCTKNDRVLSTPKQCVLLALLGGVSFFCLDFYLLFSAPHAHSFKQIFIDSFMISSLLLLIIGVVYLTFLLNDKQHKGKALIETTELTLFPIYQYLICFAVTVMLVCLACEYRIIAINKDLVLSASCIFFPITIIISSIVGELWGYQANLKLALALLAAQFIFDMLLMGSVALPSPPFFNLNPFYHYIMPRRLSAASLSLFVTFLGNAMLLHYLKYSKWKINRSLRILIANISVNSLLCLVDYSLLYGGIYPYEQIINLAVSVWQYKLLTALIALPVILWMCKILERNYSLVVQTERN | failed |
| MNQTRVLLIFSWLTVATLLWMDWSKNKNETLEISASHNLGVDSNLELEHAVPQIHAGAVPLQKDSQLIAAAPKVPVINVTTDVLQLKLDGFSILAADLLRFPQSKDRGAKPIKLLTDDPNYPYSATTGWVSQSNSPVPNLSTFLPEQPDVSYKLANDQNRLVVPFIWTAANGVSIRRTFTFERGRYAILIRDEIRNSGETPWNAYVFRKLSRVPIPNILNRAMTNPDSFSFNGAVWYSEKGGYERRAFKDYMNDGGLNREIGGGWIALLQHHFFTAWIPQKDQASLYLLAQNGSRDIAELRGPAFTVAPGQTTTTEARLWVGPKLVEQITKEHVKGLDRVVDYSRFQLMALIGQGLFWILSHLNSLLHNWGWAIVGLVVLLRIAMYPLSASQYKSAAKMRKFQPRLQQLKERYGEDRQKFQQAMMELYKKEKINPMGGCFPILIQMPIFFALYWVLVESVELRQAPWLGWIQDLTTRDPYFILPLLNIVIMWATQKLTPTPAGMDPIAGKMMQVMPLIFGVMMAFVPSGLALYWVINGGLNLLIQWWMIRQHADFSRKRSRENIK | failed |
| MNRARDWLEQARHNLRHAQGSLGLGDYAWACFAAQQAAEAALKGLHLARGQVAWGHSILDLLADLPEDVDVPEDLVEAAKVLDKYYIPTRYPDAHPAGPAARHYTRLEAEEALDLAQKILAFVEEKL | not failed |

— a protein production outcome set (Wang et al. 2014)
